The values below come from PMC7319273 (Science (New York, N.y.), 2020).

Details in all cases: both partners purified
Assay [1] has as its target SARS-CoV-2 Spike protein S1 (SARS-CoV-2, Wuhan-Hu-1 (P0DTC2), UniProt P0DTC2). Kind of assay: BLI.
Assay [2] concerns the target T1, SARS-CoV-2 Spike protein receptor binding domain (RBD) (Severe acute respiratory syndrome …, UniProt P0DTC2). Kind of assay: ELISA.
For assay [3], the target named is SARS-CoV-2 Spike protein S2 (SARS-CoV-2, Wuhan-Hu-1 (P0DTC2), UniProt P0DTC2). Kind of assay: BLI. A general note: In BLI a coated tip is dipped into the sample, and binding shifts an interference pattern.
In assay [4] the target is T1, SARS-CoV-2 Spike protein receptor …. Kind of assay: BLI.

Broadly, the Kd is a measure of binding affinity in units of concentration.

B1: 1M-1D2 (human monoclonal antibody) (antibody, V domains shown)
VH: QVQLVESGGGLVQPGGSLRLSCAASGFTFSSYAMHWVRQAPGKGLEYVSAISGNGGSTYYAKSVKGRFTISRDNSKNTLYLQMGSLRAEDMAVYYCARGAEYYDFWSGYYSAYFDYWGQGTLVTVSS
VL: QAVVTQPPSASGTPGQRVTISCSGSSSNIGSNYVYWYQQLPGTAPKLLIYNNNQRPSGVPDRFSGSKSGTSASLAISGLRSEDEADYYCAAWDDSLIYVLFGGGTKLTVL
In assay [1], B1 showed a dissociation constant (Kd) of 108 nM.

B2: 4A8 (human monoclonal antibody) (antibody, V domains shown)
VH: EVQLVESGAEVKKPGASVKVSCKVSGYTLTELSMHWVRQAPGKGLEWMGGFDPEDGETMYAQKFQGRVTMTEDTSTDTAYMELSSLRSEDTAVYYCATSTAVAGTPDLFDYYYGMDVWGQGTTVTVSS
VL: EIVMTQSPLSSPVTLGQPASISCRSSQSLVHSDGNTYLSWLQQRPGQPPRLLIYKISNRFSGVPDRFSGSGAGTDFTLKISRVEAEDVGVYYCTQATQFPYTFGQGTKVDIK
B2 came in with a Kd in assay [1] of 92.7 nM. Moreover, the binding result in assay [2] was “no binding”.

B3: 9A1 (human monoclonal antibody) (antibody, V domains shown)
VH: EVQLLESGGGVVQPGRSLRLSCVVSGFTFNNYGMHWVRQAPGKGLEWVAVISYEGSVKYYGDHVDGRFTISRDPFKNTLYLHMNNLRPDDTAVYYCAKVSAIFWLGQGLSPIDVWGQGTTVTVSS
VL: DIVMTQSPATLSASPGERVTLSCRASQNIRNNLAWYQQKPGQAPRLLIHGASTRAAGAPARFSGSGSDTQFTLTVSSLQSEDFAVYYCHQYSKWPVTFGGGTKVDIK
notes: also called mAb 9A1
The molecule B3 had an equilibrium dissociation constant (Kd) in assay [3] below 0.001 nM.

B4: 2M-10B11 (human monoclonal antibody) (antibody, V domains shown)
VH: EVQLVESGGGLVQPGGSLRLSCAASGFTVSSNYMSWVRQAPGKGLEWVSVIYSGGSTYYADSVKGRFTISRDNSKNTLYLQMNSLRAEDTAVYYCARATWLRGVMDVWGQGTTVTVSS
VL: QSALTQPHSVSESPGKTVTISCTGSSGSIASNYVQWYQQRPGSAPTTVIYEDNQRPSGVPDRFSGSIDSSSNSASLTISGLKTEDEADYYCQSYDSSNHWVFGGGTKLTVL
notes: ELISA group 2B; also called mAb 2M-10B11
Consider B4, for which the dissociation constant Kd in assay [4] stood at 24.3 nM.

B5: 0304-3H3 (human monoclonal antibody) (antibody, V domains shown)
VH: EVQLVESGPGLVKPSETLSLTCTASGGSISTYYWSWIRQPPGKGLEWIGYIYYSGSTNYNPSLKSRVTISVDTSKNQFSLKLSSVTAADTAVYYCARDRIAPVGKFFGWYFDLWGRGTLVTVSS
VL: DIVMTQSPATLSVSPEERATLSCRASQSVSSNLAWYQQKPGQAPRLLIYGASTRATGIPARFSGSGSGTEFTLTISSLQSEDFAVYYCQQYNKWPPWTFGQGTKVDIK
notes: also called mAb 0304-3H3
Molecule B5 gave a dissociation constant (Kd) in assay [3] of 4.52 nM.
